Experimental data as given in article PMC5003816.

Molecular target: HSP70 (mouse, endogenous), Q61696
Test: UBQLN2 IP and western blot quantification (primary MEFs)
Details: chain shown with the change; n = 3; read off a plot

Chain of HSP70 (mouse, endogenous), Q61696 (Q61696 whole entry): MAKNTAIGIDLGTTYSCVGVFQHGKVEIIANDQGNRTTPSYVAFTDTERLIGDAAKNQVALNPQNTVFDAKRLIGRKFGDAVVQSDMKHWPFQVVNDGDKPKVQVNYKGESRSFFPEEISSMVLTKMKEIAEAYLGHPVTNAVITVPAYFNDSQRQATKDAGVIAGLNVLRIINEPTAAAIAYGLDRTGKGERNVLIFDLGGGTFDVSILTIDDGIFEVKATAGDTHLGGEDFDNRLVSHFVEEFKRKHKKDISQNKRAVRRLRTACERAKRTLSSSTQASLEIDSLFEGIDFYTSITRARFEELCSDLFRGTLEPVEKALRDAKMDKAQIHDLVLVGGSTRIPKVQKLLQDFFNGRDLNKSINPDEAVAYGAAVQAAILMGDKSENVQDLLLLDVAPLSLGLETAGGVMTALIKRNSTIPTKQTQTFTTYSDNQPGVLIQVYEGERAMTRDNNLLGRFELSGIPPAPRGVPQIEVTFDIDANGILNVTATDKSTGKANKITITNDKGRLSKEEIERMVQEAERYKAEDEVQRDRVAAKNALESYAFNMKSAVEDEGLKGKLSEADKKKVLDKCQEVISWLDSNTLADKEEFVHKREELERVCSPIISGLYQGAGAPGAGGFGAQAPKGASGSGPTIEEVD

ratio to parent: 0.38
B1: UBQLN2 (mouse, endogenous, wild type), Q9QZM0 mP520T (protein)
chain: MAENGESSGPPRPSRGPAAAPGAASPPAEPKIIKVTVKTPKEKEEFAVPENSTVQQFKEAISKRFKSQTDQLVLIFAGKILKDQDTLMQHGIHDGLTVHLVIKSQNRPQGQATTQPSTTAGTSTTTTTTTTAAAPAATTSSAPRSSSTPTTTNSSSFGLGSLSSLSNLGLNSPNFTELQNQMQQQLLASPEMMIQIMENPFVQSMLSNPDLMRQLIMANPQMQQLIQRNPEISHLLNNPDIMRQTLEIARNPAMMQEMMRNQDLALSNLESIPGGYNALRRMYTDIQEPMLNAAQEQFGGNPFATVGSSSTSGEGTQPSRTENRDPLPNPWAPPPTTQTAATTTTTTTTSSGSGSGSSSSSTTAGNTMAAANYVASIFSTPGMQSLLQQITENPQLIQNMLSAPYMRSMMQSLSQNPDMAAQMMLSSPLFTSNPQLQEQMRPQLPNFLQQMQNPETIAAMSNPRAMQALMQIQQGLQTLATEAPGLIPSFAPGVGMGVLGTAITPVGPVTPIGPIGPIVTFTPIGPIGPIGPTGPASSPGSTGTGIPPATTVSSSAPTETISPTSESGPNQQFIQQMVQALTGGSPPQPPNPEVRFQQQLEQLNAMGFLNREANLQALIATGGDINAAIERLLGSQPS
